Our source for the percent positive (transcriptional activation) and stoichiometry N values is PMC3274520.

In general, stoichiometry N refers to the number of molecules, sites or subunits per partner or assembly.

In experiment [1] the target is full-length MNV-1 NS1-2, bacterial two-hybrid fusions (pBT-NS1-2full and pTRG-NS1-2full) (Murine norovirus (MNV-1)). In words: two-hybrid; BacterioMatch II bacterial two-hybrid; NS1-2 fused to λcI (pBT) and to the RNA polymerase α-subunit (pTRG); selective medium with 3 mM 3-AT.
In experiment [2] the target is truncated MNV-1 NS1-2 fragment (minus the transmembrane domain), recombinant from E. coli (Murine norovirus (MNV-1)). The experiment can be described thus: SEC + other: sucrose gradient sedimentation; Stokes radius from the calibrated Superose12 column and sedimentation coefficient from 5-20% sucrose gradients (16 h, 130,000×g, 4°C) joined in the simplified Svedberg equation; monomer and dimer fractions of the size exclusion column. (In general: In gel filtration, larger molecules generally elute earlier.)

Experiment [3] has as its target truncated MNV-1 NS1-2, bacterial two-hybrid fusions (pBT-NS1-2trunc and pTRG-NS1-2trunc) (Murine norovirus (MNV-1)). The experiment can be described thus: two-hybrid; BacterioMatch II bacterial two-hybrid; NS1-2 fused to λcI (pBT) and to the RNA polymerase α-subunit (pTRG); selective medium with 3 mM 3-AT.

In experiment [1], “full-length MNV-1 NS1-2, bacterial two-hybrid fusions (pBT-NS1-2full and pTRG-NS1-2full) (natural protein)” returned a percent positive (transcriptional activation) of 26%.
Consider “truncated MNV-1 NS1-2 fragment (minus the transmembrane domain), recombinant from E. coli (domain or fragment)”, for which the stoichiometry N in experiment [2] came to 2.
For the substance “truncated MNV-1 NS1-2, bacterial two-hybrid fusions (pBT-NS1-2trunc and pTRG-NS1-2trunc) (domain or fragment)”, the percent positive (transcriptional activation) in experiment [3] came to 38%.
